Measurements: patent US11260115B1, “Peptides and combination of peptides for use in immunotherapy against CLL and other cancers” (immatics biotechnologies GmbH, priority 2015, dated 2022)

Biological target: HLA-A*02:01 (Homo sapiens, UniProt P04439, D140Y/D185E/D98H/E176V/E277Q/G131W/G231S/I119V/I121R/I166T/I218V/L300P/L318F/N151K/N90K/P208A/P217A/Q86G/Q94H/R138H/R169H/T345S)
Test: MHC binding assay (UV-ligand exchange, β2m ELISA, peptide exchange yield)
Conditions: binding to HLA-A*02:01
Description: Candidate peptides for T cell based therapies according to the present invention were further tested for their MHC binding capacity (affinity). The individual peptide-MHC complexes were produced by UV-ligand exchange, where a UV-sensitive peptide is cleaved upon UV-irradiation, and exchanged with the peptide of interest as analyzed. Only peptide candidates that can effectively bind and stabilize the peptide-receptive MHC molecules prevent dissociation of the MHC complexes. To determine the yield of the exchange reaction, an ELISA was performed based on the detection of the light chain (β2m) of stabilized MHC complexes. The assay was performed as generally described in Rodenko et al. (Rodenko et al., 2006).
96 well MAXISorp plates (NUNC) were coated over night with 2 ug/ml streptavidin in PBS at room temperature, washed 4× and blocked for 1 h at 37° C. in 2% BSA containing blocking buffer. Refolded HLA-A*02:01/MLA-001 monomers served as standards, covering the range of 15-500 ng/ml. Peptide-MHC monomers of the UV-exchange reaction were diluted 100 fold in blocking buffer. Samples were incubated for 1 h at 37° C., washed four times, incubated with 2 ug/ml HRP conjugated anti-β2m for 1 h at 37° C., washed again and detected with TMB solution that is stopped with […]. Absorption was measured at 450 nm. Candidate peptides that show a high exchange yield (preferably higher than 50%, most preferred higher than 75%) are generally preferred for a generation and production of antibodies or fragments thereof, and/or T cell receptors or fragments thereof, as they show sufficient avidity to the MHC molecules and prevent dissociation of the MHC complexes.
Table 11: MHC class I binding scores. Binding of HLA-class I restricted peptides to HLA-A*02:01 was ranged by peptide exchange yield: ≥10%=+; ≥20%=++; ≥50=+++; ≥75%=++++

| Substance | Peptide Exchange (MHC class I binding score, peptide exchange yield) |
| --- | --- |
| 104 (KLILLDTPLFL; listed as Homo sapiens) [compound 104] | “+++” (>50 = +++) |
| 105 (KLMNDIADI; listed as Homo sapiens) [compound 105] | “++” (>20% = ++) |
| 106 (FMASHLDYL; listed as Homo sapiens) [compound 106] | “+++” (>50 = +++) |
| 107 (ILYNLYDLL; listed as Homo sapiens) [compound 107] | “+++” (>50 = +++) |
| 108 (VIYTLIHYI; listed as Homo sapiens) [compound 108] | “+++” (>50 = +++) |
| 109 (KLWEGLTELV; listed as Homo sapiens) [compound 109] | “+++” (>50 = +++) |
| 110 (LLFDHLEPMEL; listed as Homo sapiens) [compound 110] | “+++” (>50 = +++) |
| 111 (KLWNVAAPLYL; listed as Homo sapiens) [compound 111] | “+++” (>50 = +++) |
| 113 (KVPAEEVLVAV; listed as Homo sapiens) [compound 113] | “+++” (>50 = +++) |
| 115 (LLFDKLYLL; listed as Homo sapiens) [compound 115] | “+++” (>50 = +++) |
| 116 (LLIGATMQV; listed as Homo sapiens) [compound 116] | “+++” (>50 = +++) |
| 117 (LLILENILL; listed as Homo sapiens) [compound 117] | “+++” (>50 = +++) |
| 118 (RLLILENILL; listed as Homo sapiens) [compound 118] | “+++” (>50 = +++) |
| 119 (VLPAEFFEV; listed as Homo sapiens) [compound 119] | “+++” (>50 = +++) |
| 120 (AIDAALTSV; listed as Homo sapiens) [compound 120] | “+++” (>50 = +++) |
| 121 (RLYEITIEV; listed as Homo sapiens) [compound 121] | “++++” (>75% = ++++) |
| 122 (LLIPVVPGV; listed as Homo sapiens) [compound 122] | “+++” (>50 = +++) |
| 123 (LLLAEAELLTL; listed as Homo sapiens) [compound 123] | “++” (>20% = ++) |
| 124 (LLLEETEKQAV; listed as Homo sapiens) [compound 124] | “+++” (>50 = +++) |
| 125 (LLLEIGEVGKLFV; listed as Homo sapiens) [compound 125] | “+++” (>50 = +++) |
| 126 (LLPEGGITAI; listed as Homo sapiens) [compound 126] | “+++” (>50 = +++) |
| 127 (LLPTAPTTV; listed as Homo sapiens) [compound 127] | “+++” (>50 = +++) |
| 128 (LLSEEEYHL; listed as Homo sapiens) [compound 128] | “+++” (>50 = +++) |
| 130 (LLVLIPVYL; listed as Homo sapiens) [compound 130] | “+” (>10% = +) |
| 131 (LQALEVLKI; listed as Homo sapiens) [compound 131] | “+” (>10% = +) |
| 132 (LVYEAIIMV; listed as Homo sapiens) [compound 132] | “+++” (>50 = +++) |
| 133 (YLLSGDISEA; listed as Homo sapiens) [compound 133] | “+++” (>50 = +++) |
| 134 (MLLEHGITLV; listed as Homo sapiens) [compound 134] | “++++” (>75% = ++++) |

Other lines, results leading:

| Peptide Exchange (MHC class I binding score, peptide exchange yield) | Substance |
| --- | --- |
| “+” (>10% = +) | 135 (MTAGFSTIAGSV; listed as Homo sapiens) [compound 135] |
| “++” (>20% = ++) | 136 (NLDKLWTLV; listed as Homo sapiens) [compound 136] |
| “+++” (>50 = +++) | 137 (NLIKTVIKL; listed as Homo sapiens) [compound 137] |
| “+++” (>50 = +++) | 138 (NLLDIDAPVTV; listed as Homo sapiens) [compound 138] |
| “+++” (>50 = +++) | 139 (NLTDVVEKL; listed as Homo sapiens) [compound 139] |
| “+++” (>50 = +++) | 140 (QIAELPATSV; listed as Homo sapiens) [compound 140] |
| “++” (>20% = ++) | 141 (QILSEIVEA; listed as Homo sapiens) [compound 141] |
| “++” (>20% = ++) | 142 (QLDEPAPQV; listed as Homo sapiens) [compound 142] |
| “+++” (>50 = +++) | 143 (QLLDTYFTL; listed as Homo sapiens) [compound 143] |
| “+++” (>50 = +++) | 145 (SALDTITTV; listed as Homo sapiens) [compound 145] |
| “+++” (>50 = +++) | 146 (SIIEGPIIKL; listed as Homo sapiens) [compound 146] |
| “+++” (>50 = +++) | 147 (SILETVATL; listed as Homo sapiens) [compound 147] |
| “+++” (>50 = +++) | 148 (SIVASLITV; listed as Homo sapiens) [compound 148] |
| “+++” (>50 = +++) | 149 (SLDNGGYYI; listed as Homo sapiens) [compound 149] |
| “+++” (>50 = +++) | 150 (SLFDQPLSII; listed as Homo sapiens) [compound 150] |
| “+++” (>50 = +++) | 151 (SLFDSAYGA; listed as Homo sapiens) [compound 151] |

| Peptide Exchange (MHC class I binding score, peptide exchange yield) | Substance |
| --- | --- |
| “+++” (>50 = +++) | 152 (SLIRILQTI; listed as Homo sapiens) [compound 152] |
| “+++” (>50 = +++) | 153 (SLLAELHVL; listed as Homo sapiens) [compound 153] |
| “+++” (>50 = +++) | 155 (SLMLEVPAL; listed as Homo sapiens) [compound 155] |
| “+++” (>50 = +++) | 156 (SLNIGDVQL; listed as Homo sapiens) [compound 156] |
| “+++” (>50 = +++) | 157 (SLNIRDFTM; listed as Homo sapiens) [compound 157] |
| “+++” (>50 = +++) | 158 (SLPEAPLDV; listed as Homo sapiens) [compound 158] |
| “+++” (>50 = +++) | 159 (SLQEEKLIYV; listed as Homo sapiens) [compound 159] |
| “+++” (>50 = +++) | 160 (SLSFLVPSL; listed as Homo sapiens) [compound 160] |
| “+++” (>50 = +++) | 161 (SMDDGMINV; listed as Homo sapiens) [compound 161] |
| “++” (>20% = ++) | 162 (SMKDDLENV; listed as Homo sapiens) [compound 162] |
| “+++” (>50 = +++) | 163 (SQLDISEPYKV; listed as Homo sapiens) [compound 163] |
| “+++” (>50 = +++) | 164 (SVHKGFAFV; listed as Homo sapiens) [compound 164] |
| “++” (>20% = ++) | 165 (TLDDDLDTV; listed as Homo sapiens) [compound 165] |
| “++” (>20% = ++) | 166 (TLDPNQVSL; listed as Homo sapiens) [compound 166] |
| “+++” (>50 = +++) | 167 (TLDTSKLYV; listed as Homo sapiens) [compound 167] |
| “++++” (>75% = ++++) | 168 (YLLDQSFVM; listed as Homo sapiens) [compound 168] |
